B1: Feline 15H05 1.1 FW2 (antibody, V domains shown)
VH: QVLLVQSGAEVRTPGASVKIFCKASGYSFTSYTIHWLRQAPAQGLEWMGNINPTSGYTENNQRFKDRLTLTADTSTNTAYMELSSLRSADTAMYYCARWGFKYDGEWSFDVWGAGTTVTVSS
VL: EIQMTQSPSSLSASPGDRVTITCRASQGISIWLSWYQQKPGNIPKVLINKASNLHIGVPSRFSGSGSGTDFTLTISSLEPEDAATYYCLQSQTYPLTFGGGTKLEIK
notes: also called felinized 15H05 1.1 FW2
B2: Feline 15H05 VH2 mouse VL (antibody, V domains shown)
VH: QVLLVQSGAEVRTPGASVKIFCKASGYGFTSYTIHWVRQSPAQGLEWMGNINPTSGYTENNQRFKDRLTLTADTSTNTAYMELSSLRSADTAMYYCARWGFKYDGEWSFDVWGAGTTVTVSS
VL: DIQMNQSPSSLSASLGDTITVTCRASQGISIWLSWYQQKPGNIPKVLINKASNLHIGVPPRFSGSGSGTHFTLTITSLQPEDIATYYCLQSQTYPLTFGGGTKLEIN
notes: also called felinized 15H05 VH2 with mouse 15H05 VL (heterochimera)
B3: Feline 15H05 1.1 FW1_2 (antibody, V domains shown)
VH: QVLLVQSGAEVRTPGASVKIFCKASGYSFTSYTIHWLRQAPAQGLEWMGNINPTSGYTENNQRFKDRLTLTADTSTNTAYMELSSLRSADTAMYYCARWGFKYDGEWSFDVWGAGTTVTVSS
VL: DIQMNQSPSSLSASLGDTITVTCRASQGISIWLSWYQQKPGNIPKVLINKASNLHIGVPSRFSGSGSGTDFTLTISSLEPEDAATYYCLQSQTYPLTFGGGTKLEIK
B4: Feline 15H05 1.1 K42N_V43I (antibody, V domains shown)
VH: QVLLVQSGAEVRTPGASVKIFCKASGYSFTSYTIHWLRQAPAQGLEWMGNINPTSGYTENNQRFKDRLTLTADTSTNTAYMELSSLRSADTAMYYCARWGFKYDGEWSFDVWGAGTTVTVSS
VL: EIQMTQSPSSLSASPGDRVTITCRASQGISIWLSWYQQKPGNIPKLLIYKASNLHIGVPSRFSGSGSGTDFTLTISSLEPEDAATYYCLQSQTYPLTFGGGTKLEIK
B5: Feline 15H05 1.1 L46V (antibody, V domains shown)
VH: QVLLVQSGAEVRTPGASVKIFCKASGYSFTSYTIHWLRQAPAQGLEWMGNINPTSGYTENNQRFKDRLTLTADTSTNTAYMELSSLRSADTAMYYCARWGFKYDGEWSFDVWGAGTTVTVSS
VL: EIQMTQSPSSLSASPGDRVTITCRASQGISIWLSWYQQKPGKVPKVLIYKASNLHIGVPSRFSGSGSGTDFTLTISSLEPEDAATYYCLQSQTYPLTFGGGTKLEIK
B6: Feline 15H05 1.1 K42N (antibody, V domains shown)
VH: QVLLVQSGAEVRTPGASVKIFCKASGYSFTSYTIHWLRQAPAQGLEWMGNINPTSGYTENNQRFKDRLTLTADTSTNTAYMELSSLRSADTAMYYCARWGFKYDGEWSFDVWGAGTTVTVSS
VL: EIQMTQSPSSLSASPGDRVTITCRASQGISIWLSWYQQKPGNVPKLLIYKASNLHIGVPSRFSGSGSGTDFTLTISSLEPEDAATYYCLQSQTYPLTFGGGTKLEIK
B7: Feline 15H05 1.1 V43I (antibody, V domains shown)
VH: QVLLVQSGAEVRTPGASVKIFCKASGYSFTSYTIHWLRQAPAQGLEWMGNINPTSGYTENNQRFKDRLTLTADTSTNTAYMELSSLRSADTAMYYCARWGFKYDGEWSFDVWGAGTTVTVSS
VL: EIQMTQSPSSLSASPGDRVTITCRASQGISIWLSWYQQKPGKIPKLLIYKASNLHIGVPSRFSGSGSGTDFTLTISSLEPEDAATYYCLQSQTYPLTFGGGTKLEIK
B8: Feline 15H05 3.3 (antibody, V domains shown)
VH: QVLLVQSGAEVRKPGASVKIFCKASGYSFTSYTIHWLRQAPEQGLEWMGNINPTSGYTENNQRFKDRLTLTADTSTNTAYMELSSLRSADTAMYYCARWGFKYDGEWSFDVWGAGTTVTVSS
VL: EVVLTQSSAFLSRTLKEKATITCRASQGISIWLSWYQQKPNQAPKLLVKKASNLHIGAPSRFSGSGSGTDFTLTISSPEPEDAATYYCLQSQTYPLTFGGGTKLGDQ
notes: Feline heavy and kappa constant regions
B9: Feline 15H05 2.3 (antibody, V domains shown)
VH: QVLLVQSGAEVRTPGASVKIFCKASGYGFTSYTIHWVRQSPAQGLEWMGNINPTSGYTENNQRFKDRLTLTADTSTNTAYMELSSLRSADTAMYYCARWGFKYDGEWSFDVWGAGTTVTVSS
VL: EVVLTQSSAFLSRTLKEKATITCRASQGISIWLSWYQQKPNQAPKLLVKKASNLHIGAPSRFSGSGSGTDFTLTISSPEPEDAATYYCLQSQTYPLTFGGGTKLGDQ
notes: as for B8
B10: Feline 15H05 VH1 mouse VL (antibody, V domains shown)
VH: QVLLVQSGAEVRTPGASVKIFCKASGYSFTSYTIHWLRQAPAQGLEWMGNINPTSGYTENNQRFKDRLTLTADTSTNTAYMELSSLRSADTAMYYCARWGFKYDGEWSFDVWGAGTTVTVSS
VL: DIQMNQSPSSLSASLGDTITVTCRASQGISIWLSWYQQKPGNIPKVLINKASNLHIGVPPRFSGSGSGTHFTLTITSLQPEDIATYYCLQSQTYPLTFGGGTKLEIN
notes: Heterochimeric antibody; also called felinized 15H05 VH1 with mouse 15H05 VL (heterochimera)
B11: Feline 15H05 1.1 Y49N (antibody, V domains shown)
VH: QVLLVQSGAEVRTPGASVKIFCKASGYSFTSYTIHWLRQAPAQGLEWMGNINPTSGYTENNQRFKDRLTLTADTSTNTAYMELSSLRSADTAMYYCARWGFKYDGEWSFDVWGAGTTVTVSS
VL: EIQMTQSPSSLSASPGDRVTITCRASQGISIWLSWYQQKPGKVPKLLINKASNLHIGVPSRFSGSGSGTDFTLTISSLEPEDAATYYCLQSQTYPLTFGGGTKLEIK
B12: Feline 15H05 3.1 (antibody, V domains shown)
VH: QVLLVQSGAEVRKPGASVKIFCKASGYSFTSYTIHWLRQAPEQGLEWMGNINPTSGYTENNQRFKDRLTLTADTSTNTAYMELSSLRSADTAMYYCARWGFKYDGEWSFDVWGAGTTVTVSS
VL: EIQMTQSPSSLSASPGDRVTITCRASQGISIWLSWYQQKPGKVPKLLIYKASNLHIGVPSRFSGSGSGTDFTLTISSLEPEDAATYYCLQSQTYPLTFGGGTKLEIK
notes: as for B8
B13: Feline 15H05 2.1 (antibody, V domains shown)
VH: QVLLVQSGAEVRTPGASVKIFCKASGYGFTSYTIHWVRQSPAQGLEWMGNINPTSGYTENNQRFKDRLTLTADTSTNTAYMELSSLRSADTAMYYCARWGFKYDGEWSFDVWGAGTTVTVSS
VL: EIQMTQSPSSLSASPGDRVTITCRASQGISIWLSWYQQKPGKVPKLLIYKASNLHIGVPSRFSGSGSGTDFTLTISSLEPEDAATYYCLQSQTYPLTFGGGTKLEIK
notes: as for B8
B14: Feline 15H05 1.1 (antibody, V domains shown)
VH: QVLLVQSGAEVRTPGASVKIFCKASGYSFTSYTIHWLRQAPAQGLEWMGNINPTSGYTENNQRFKDRLTLTADTSTNTAYMELSSLRSADTAMYYCARWGFKYDGEWSFDVWGAGTTVTVSS
VL: EIQMTQSPSSLSASPGDRVTITCRASQGISIWLSWYQQKPGKVPKLLIYKASNLHIGVPSRFSGSGSGTDFTLTISSLEPEDAATYYCLQSQTYPLTFGGGTKLEIK
notes: as for B8
B15: Feline 15H05 1.1 FW1 (antibody, V domains shown)
VH: QVLLVQSGAEVRTPGASVKIFCKASGYSFTSYTIHWLRQAPAQGLEWMGNINPTSGYTENNQRFKDRLTLTADTSTNTAYMELSSLRSADTAMYYCARWGFKYDGEWSFDVWGAGTTVTVSS
VL: DIQMNQSPSSLSASLGDTITVTCRASQGISIWLSWYQQKPGKVPKLLIYKASNLHIGVPSRFSGSGSGTDFTLTISSLEPEDAATYYCLQSQTYPLTFGGGTKLEIK
B16: Feline 15H05 1.1 FW3 (antibody, V domains shown)
VH: QVLLVQSGAEVRTPGASVKIFCKASGYSFTSYTIHWLRQAPAQGLEWMGNINPTSGYTENNQRFKDRLTLTADTSTNTAYMELSSLRSADTAMYYCARWGFKYDGEWSFDVWGAGTTVTVSS
VL: EIQMTQSPSSLSASPGDRVTITCRASQGISIWLSWYQQKPGKVPKLLIYKASNLHIGVPPRFSGSGSGTHFTLTITSLQPEDIATYYCLQSQTYPLTFGGGTKLEIK
B17: Feline 15H05 1.1 FW2_3 (antibody, V domains shown)
VH: QVLLVQSGAEVRTPGASVKIFCKASGYSFTSYTIHWLRQAPAQGLEWMGNINPTSGYTENNQRFKDRLTLTADTSTNTAYMELSSLRSADTAMYYCARWGFKYDGEWSFDVWGAGTTVTVSS
VL: EIQMTQSPSSLSASPGDRVTITCRASQGISIWLSWYQQKPGNIPKVLINKASNLHIGVPPRFSGSGSGTHFTLTITSLQPEDIATYYCLQSQTYPLTFGGGTKLEIK

Assays:
[1] = molecular target: T1, wildtype feline IL-31 protein (Feline_IL31_wildtype) (feline); assay: SPR (Biacore), IL-31 on chip, 1:1 fit
T1 construct: Full length feline IL-31 with C-terminal His tag, secreted from ExpiCHO cells; also called fIL-31
T1 chain: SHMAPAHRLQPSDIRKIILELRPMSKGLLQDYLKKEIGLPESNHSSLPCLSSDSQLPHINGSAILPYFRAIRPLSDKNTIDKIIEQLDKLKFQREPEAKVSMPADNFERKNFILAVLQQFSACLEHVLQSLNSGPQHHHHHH
Procedure: The affinity with which candidate mAbs bind canine and feline IL-31 was determined using surface plasmon resonance (SPR) on a Biacore system (Biocore Life Sciences (GE Healthcare), Uppsala, Sweden). To avoid affinity differences associated with differential surface preparation that can occur when immobilizing antibodies to surfaces; a strategy was employed where IL-31 was directly conjugated to the surface. Immobilization was obtained by amine coupling 5 μg/mL IL-31 using N-hydroxysuccinimide (NHS)/1-Ethyl-3-(3-dimethylaminopropyl) carbodiimide (EDC) chemistry. Chips were quenched with ethanolamine and the affinity with which all candidate mAbs bound to the immobilized IL-31 was evaluated. All curves were fit to a 1:1 model. […] Results for affinity measurements are described herein.

[2] = molecular target: T2, canine IL-31 protein (Canine_IL31) (canine); assay: SPR (Biacore), IL-31 on chip, 1:1 fit
T2 chain: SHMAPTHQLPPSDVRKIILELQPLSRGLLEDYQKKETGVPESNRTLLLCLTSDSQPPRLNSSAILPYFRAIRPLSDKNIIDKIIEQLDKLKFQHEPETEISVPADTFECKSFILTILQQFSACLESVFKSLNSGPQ

| Binder | Kd [1] [nM] | koff [1] [s⁻¹] | kon [1] [M⁻¹ s⁻¹] | koff [2] [s⁻¹] | kon [2] [M⁻¹ s⁻¹] | Kd [2] [nM] |
| --- | --- | --- | --- | --- | --- | --- |
| B1 | 0.065 | 2.49e-05 | 383000 | 1.66e-07 | 384000 | – |
| B2 | 1.61 | 5.47e-05 | 34000 | 0.000379 | 171000 | – |
| B3 | 0.887 | 6.7e-06 | 7560 | 3.82e-06 | 6910 | – |
| B4 | 9.42 | 0.0022 | 234000 | – | – | – |
| B5 | 22.8 | 0.000811 | 35500 | – | – | – |
| B6 | 6770 | 0.011 | 1630 | – | – | – |
| B7 | 13.6 | 0.000401 | 29400 | – | – | – |
| B8 | 11.6 | 0.000886 | 76300 | – | – | – |
| B9 | 1.57 | 0.000535 | 341000 | – | – | – |
| B10 | 0.168 | 2.2e-05 | 131000 | 2.66e-07 | 108000 | – |
| B11 | 39.5 | 0.00095 | 24000 | – | – | – |
| B12 | 37.1 | 0.00166 | 44700 | 2.11e-05 | 26500 | – |
| B13 | 22.3 | 0.00465 | 208000 | 0.000866 | 525000 | – |
| B14 | 13.5 | 0.00131 | 97100 | 1.36e-07 | 27000 | – |
| B15 | 564 | 0.00286 | 5060 | 0.0156 | 19200 | – |
| B16 | 0.0564 | 1.21e-05 | 214000 | 3.91e-07 | 3000 | 0.13 |
| B17 | 123 | 0.00116 | 9490 | 0.00193 | 9050 | – |

Reference: patent US20250136677A1 (ZOETIS SERVICES, published 2025)
